What was measured:
Test in all cases: IEDB peptide-MHC binding, purified MHC/competitive/radioactivity; filed as Kd, often an IC50 or EC50 that approximates it; ≥ and ≤ were set here for values at or beyond the usual limits of such assays
HLA-A*02:02 = target: HLA-A*02:02
HLA-A*02:03 = target: HLA-A*02:03
HLA-A*02:06 = target: HLA-A*02:06
HLA-A*03:01 = target: HLA-A*03:01
HLA-A*11:01 = target: HLA-A*11:01
HLA-A*31:01 = target: HLA-A*31:01
HLA-A*68:01 = target: HLA-A*68:01
HLA-A*33:01 = target: HLA-A*33:01
[1] = source organism: Vaccinia virus WR
[2] = source organism: Mammarenavirus guanaritoense
[3] = source organism: Dengue virus 3 Martinique/1243/1999
[4] = source organism: SARS coronavirus Tor2

Row | Sequence | Kd (HLA-A*02:02; [1]) | Kd (HLA-A*02:03; [1]) | Kd (HLA-A*02:06; [1]) | other results
1 | CVDHPFIYVI | 964 nM | 10800 nM | 1610 nM | 
2 | YIKDLKHAT | 18500 nM | ≥ 78100 nM | ≥ 39400 nM | 
3 | KILSDENYL | 196 nM | 1170 nM | 27.6 nM | 
4 | QAKKPEVRI | 738 nM | 6570 nM | ≥ 41900 nM | 
5 | FMNDLQVSR |  |  |  | Kd (HLA-A*02:02; [2]): 249 nM; Kd (HLA-A*02:03; [2]): 914 nM; Kd (HLA-A*02:06; [2]): ≥ 33600 nM
6 | MLKLFTHDIM | 84.6 nM | 93.1 nM | ≥ 20300 nM | 
7 | LVIRNEVNDT | 5500 nM | 15200 nM | 2170 nM | 
8 | HQRRLVKLL | 15900 nM | 1680 nM | ≥ 21300 nM | 
9 | ALVSDCAST | 701 nM | 31.1 nM | 311 nM | 
10 | IVLEFFMMVL |  |  |  | Kd (HLA-A*02:06; [3]): 107 nM
11 | FIASAPQQL | 1.97 nM | 4.39 nM | 89.4 nM | 
12 | VIVVPVIDRL | 4570 nM | ≥ 59000 nM | 11100 nM | 
13 | KLLNMRDLIV | 194 nM | 29.4 nM | 2.77 nM | 
14 | AIYVFCISL |  |  |  | Kd (HLA-A*02:02; [4]): 143 nM; Kd (HLA-A*02:03; [4]): 201 nM; Kd (HLA-A*02:06; [4]): 47.7 nM
15 | VQLPKRGVRV | ≥ 33700 nM | 2210 nM | 41.3 nM | 
16 | LIVILFIMFM | 85.1 nM | 433 nM | 120 nM | 
17 | DVNSVQFSIL | 2270 nM | 1660 nM | 3400 nM | 
18 | IIGHIGHHYI | 400 nM | 186 nM | 1350 nM | 
19 | EIVKNIREGT | ≥ 28500 nM | 8530 nM | ≥ 60700 nM | 
20 | LLNMRDLIV | 665 nM | 1.23 nM | 225 nM | 
21 | YVHSLLYSSM | 2200 nM | 6710 nM | 2250 nM | 
22 | ELVKHGLRAL |  |  |  | Kd (HLA-A*02:06; source organism: Homo sapiens): ≥ 43400 nM
23 | GLKSKTHAVL |  |  |  | Kd (HLA-A*02:03; source organism: Homo sapiens): 1.05 nM; Kd (HLA-A*02:06; source organism: Homo sapiens): ≥ 69800 nM
24 | EQLQLLMPLK |  |  |  | Kd (HLA-A*03:01; [4]): 1200 nM; Kd (HLA-A*11:01; [4]): 150 nM; Kd (HLA-A*31:01; [4]): 2940 nM; Kd (HLA-A*68:01; [4]): 1790 nM; Kd (HLA-A*33:01; [4]): 2370 nM
25 | NLKYTVIITV |  |  |  | Kd (HLA-A*02:03; [3]): 9.29 nM
26 | VIDKAKVMGR |  |  |  | Kd (HLA-A*03:01; [1]): 805 nM; Kd (HLA-A*11:01; [1]): 488 nM; Kd (HLA-A*31:01; [1]): 130 nM; Kd (HLA-A*68:01; [1]): 334 nM; Kd (HLA-A*33:01; [1]): 2650 nM
27 | KVVGLYGNGV |  |  |  | Kd (HLA-A*02:06; source organism: Dengue virus 2 Jamaica/1409/1983): 11.8 nM

Source: the Immune Epitope Database (IEDB)
